Measurements from patent publication US20240270821A1, “GIP/GLP1/GCG TRI-RECEPTOR AGONISTS AND USES THEREOF” (priority 2023, published 2024).
Substitutions are numbered along the chain they refer to.

B1: Example 1168 (peptide)
chain: YXQGTXTSDXXIXLDXKAQXEFIEXLIEGGPSSGAPPPSGGGE
modifications: non-natural residues, AEEA-γGlu-C18 diacid lysine acylation, C-terminal amide; synthetic construct; SITE 2: note = 2-Aminoisobutyric Acid; SITE 6: note = alpha-methyl-L-phenylalanine; SITE 10: note = 3-(4-Pyridyl)-L-alanine; SITE 11: note = alpha-methyl-L-serine; SITE 13: note = alpha-methyl-leucine; SITE 16: note = L-ornithine; SITE 17: note = Lysine is chemically modified th
B2: Example 1169 (peptide)
chain: B1 chain with A35E
modifications: non-natural residues; acylated Lys C18 diacid; C-term amide; synthetic construct; SITE 2: note = 2-Aminoisobutyric Acid; SITE 6: note = alpha-methyl-L-phenylalanine; SITE 10: note = 3-(4-Pyridyl)-L-alanine; SITE 11: note = alpha-methyl-L-serine; SITE 13: note = alpha-methyl-leucine; SITE 16: note = L-ornithine; SITE 17: note = Lysine is chemically modified th
B3: Example 1174 (peptide)
chain: B1 chain
modifications: non-natural residues (Aib, αMeF, 4Pal, Orn, Me4Pal); lipidated Lys; C-amide; synthetic construct; SITE 2: note = 2-Aminoisobutyric Acid; SITE 6: note = alpha-methyl-L-phenylalanine; SITE 10: note = 3-(4-Pyridyl)-L-alanine; SITE 11: note = alpha-methyl-L-serine; SITE 13: note = alpha-methyl-leucine; SITE 16: note = L-ornithine; SITE 17: note = Lysine is chemically modified th
B4: Example 1175 (peptide)
chain: B1 chain with A35E
modifications: Aib, αMe residues, 4Pal, Orn, Me4Pal; acylated K; amide; synthetic construct; SITE 2: note = 2-Aminoisobutyric Acid; SITE 6: note = alpha-methyl-L-phenylalanine; SITE 10: note = 3-(4-Pyridyl)-L-alanine; SITE 11: note = alpha-methyl-L-serine; SITE 13: note = alpha-methyl-leucine; SITE 16: note = L-ornithine; SITE 17: note = Lysine is chemically modified th
B5: Example 1156 (peptide)
chain: YXQGTXTSDXXIXLDXKAQXEFIEXLVEGGPSSGAPPPESE
modifications: not fully specified; acylated lysine AEEA-γGlu-C18 diacid; non-natural residues; C-terminal amide; synthetic construct; SITE 2: note = 2-Aminoisobutyric Acid; SITE 6: note = alpha-methyl-2-fluoro-L-phenylalanine; SITE 10: note = 3-(4-Pyridyl)-L-alanine; SITE 11: note = alpha-methyl-L-serine; SITE 13: note = alpha-methyl-leucine; SITE 16: note = L-ornithine; SITE 17: note = Lysine is chemically mo
B6: Example 1176 (peptide)
chain: B5 chain with V27I, E39S, S40G
modifications: non-natural residues; lipidated Lys; C-terminal amide; synthetic construct; SITE 2: note = 2-Aminoisobutyric Acid; SITE 6: note = alpha-methyl-2-fluoro-L-phenylalanine; SITE 10: note = 3-(4-Pyridyl)-L-alanine; SITE 11: note = alpha-methyl-L-serine; SITE 13: note = alpha-methyl-leucine; SITE 16: note = L-ornithine; SITE 17: note = Lysine is chemically mo
B7: Example 1159 (peptide)
chain: B5 chain with A35E, S40G
modifications: Aib, αMeF(2F), 4Pal, Me4Pal, Orn; lipidated Lys; C-terminal amide; synthetic construct; SITE 2: note = 2-Aminoisobutyric Acid; SITE 6: note = alpha-methyl-2-fluoro-L-phenylalanine; SITE 10: note = 3-(4-Pyridyl)-L-alanine; SITE 11: note = alpha-methyl-L-serine; SITE 13: note = alpha-methyl-leucine; SITE 16: note = L-ornithine; SITE 17: note = Lysine is chemically mo
B8: Example 1160 (peptide)
chain: B5 chain with E39S, S40G
modifications: C-terminal amide; lysine acylated with (γ-Glu)2-C18 diacid; synthetic construct; SITE 2: note = 2-Aminoisobutyric Acid; SITE 6: note = alpha-methyl-2-fluoro-L-phenylalanine; SITE 10: note = 3-(4-Pyridyl)-L-alanine; SITE 11: note = alpha-methyl-L-serine; SITE 13: note = alpha-methyl-leucine; SITE 16: note = L-ornithine; SITE 17: note = Lysine is chemically mo
B9: Example 1157 (peptide)
chain: B5 chain with A35E
modifications: not fully specified; non-natural residues; lipidated Lys; C-terminal amide; synthetic construct; SITE 2: note = 2-Aminoisobutyric Acid; SITE 6: note = alpha-methyl-2-fluoro-L-phenylalanine; SITE 10: note = 3-(4-Pyridyl)-L-alanine; SITE 11: note = alpha-methyl-L-serine; SITE 13: note = alpha-methyl-leucine; SITE 16: note = L-ornithine; SITE 17: note = Lysine is chemically mo
B10: Example 1165 (peptide)
chain: B5 chain with V27I, A35E, E39S, S40G
modifications: non-natural residues (Aib, αMeF, 4Pal, Orn, Me4Pal); lipidated Lys; C-amide; synthetic construct; SITE 2: note = 2-Aminoisobutyric Acid; SITE 6: note = alpha-methyl-L-phenylalanine; SITE 10: note = 3-(4-Pyridyl)-L-alanine; SITE 11: note = alpha-methyl-L-serine; SITE 13: note = alpha-methyl-leucine; SITE 16: note = L-ornithine; SITE 17: note = Lysine is chemically modified th
B11: Example 1164 (peptide)
chain: B5 chain with V27I, E39S, S40G
modifications: non-natural residues; acylated Lys C18 diacid; C-term amide; synthetic construct; SITE 2: note = 2-Aminoisobutyric Acid; SITE 6: note = alpha-methyl-L-phenylalanine; SITE 10: note = 3-(4-Pyridyl)-L-alanine; SITE 11: note = alpha-methyl-L-serine; SITE 13: note = alpha-methyl-leucine; SITE 16: note = L-ornithine; SITE 17: note = Lysine is chemically modified th
B12: Example 1158 (peptide)
chain: B5 chain with S40G
modifications: not fully specified; non-natural residues, lysine acylation, C-terminal amide; synthetic construct; SITE 2: note = 2-Aminoisobutyric Acid; SITE 6: note = alpha-methyl-2-fluoro-L-phenylalanine; SITE 10: note = 3-(4-Pyridyl)-L-alanine; SITE 11: note = alpha-methyl-L-serine; SITE 13: note = alpha-methyl-leucine; SITE 16: note = L-ornithine; SITE 17: note = Lysine is chemically mo
B13: Example 1170 (peptide)
chain: B5 chain with V27I, E39S, S40G
modifications: non-natural residues; acylated Lys; C-terminal amide; synthetic construct; SITE 2: note = 2-Aminoisobutyric Acid; SITE 6: note = alpha-methyl-L-phenylalanine; SITE 10: note = 3-(4-Pyridyl)-L-alanine; SITE 11: note = alpha-methyl-L-serine; SITE 13: note = alpha-methyl-leucine; SITE 16: note = L-ornithine; SITE 17: note = Lysine is chemically modified th
B14: Example 1171 (peptide)
chain: B5 chain with V27I, A35E, E39S, S40G
modifications: non-natural residues, (γGlu)2-C18 diacid lysine acylation, C-terminal amide; synthetic construct; SITE 2: note = 2-Aminoisobutyric Acid; SITE 6: note = alpha-methyl-L-phenylalanine; SITE 10: note = 3-(4-Pyridyl)-L-alanine; SITE 11: note = alpha-methyl-L-serine; SITE 13: note = alpha-methyl-leucine; SITE 16: note = L-ornithine; SITE 17: note = Lysine is chemically modified th
B15: Example 1161 (peptide)
chain: B5 chain with A35E, E39S, S40G
modifications: Aib, αMeF(2F), 4Pal, αMeS, αMeL, Orn, Me4Pal, αMeY; lipidated Lys; amide; synthetic construct; SITE 2: note = 2-Aminoisobutyric Acid; SITE 6: note = alpha-methyl-2-fluoro-L-phenylalanine; SITE 10: note = 3-(4-Pyridyl)-L-alanine; SITE 11: note = alpha-methyl-L-serine; SITE 13: note = alpha-methyl-leucine; SITE 16: note = L-ornithine; SITE 17: note = Lysine is chemically mo
B16: Example 1162 (peptide)
chain: YXQGTXTSDXXIXLDXKAQXEFIEXLVEGGPSSGAPPPSGSE
modifications: non-natural residues; Lys acylated C18 diacid via γGlu2; C-term amide; synthetic construct; SITE 2: note = 2-Aminoisobutyric Acid; SITE 6: note = alpha-methyl-2-fluoro-L-phenylalanine; SITE 10: note = 3-(4-Pyridyl)-L-alanine; SITE 11: note = alpha-methyl-L-serine; SITE 13: note = alpha-methyl-leucine; SITE 16: note = L-ornithine; SITE 17: note = Lysine is chemically mo
B17: Example 1166 (peptide)
chain: B16 chain with V27I
modifications: Aib, αMeF, 4Pal, αMeS, αMeL, Orn, Me4Pal, αMeY, acyl, amide; synthetic construct; SITE 2: note = 2-Aminoisobutyric Acid; SITE 6: note = alpha-methyl-L-phenylalanine; SITE 10: note = 3-(4-Pyridyl)-L-alanine; SITE 11: note = alpha-methyl-L-serine; SITE 13: note = alpha-methyl-leucine; SITE 16: note = L-ornithine; SITE 17: note = Lysine is chemically modified th
B18: Example 1173 (peptide)
chain: B16 chain with V27I, A35E
modifications: (γGlu)2-C18 diacid on Lys; non-natural residues; amide; synthetic construct; SITE 2: note = 2-Aminoisobutyric Acid; SITE 6: note = alpha-methyl-L-phenylalanine; SITE 10: note = …; SITE 11: note = alpha-methyl-L-serine; SITE 13: note = alpha-methyl-leucine; SITE 16: note = L-ornithine; SITE 17: note = Lysine is chemically modified th
B19: Example 1172 (peptide)
chain: B16 chain with V27I
modifications: Aib, αMe residues, 4Pal, Orn, Me4Pal; acylated K; amide; synthetic construct; SITE 2: note = 2-Aminoisobutyric Acid; SITE 6: note = alpha-methyl-L-phenylalanine; SITE 10: note = 3-(4-Pyridyl)-L-alanine; SITE 11: note = alpha-methyl-L-serine; SITE 13: note = alpha-methyl-leucine; SITE 16: note = L-ornithine; SITE 17: note = Lysine is chemically modified th
B20: Example 1163 (peptide)
chain: B16 chain with A35E
modifications: non-natural residues; lipidated Lys; C-terminal amide; synthetic construct; SITE 2: note = 2-Aminoisobutyric Acid; SITE 6: note = alpha-methyl-2-fluoro-L-phenylalanine; SITE 10: note = 3-(4-Pyridyl)-L-alanine; SITE 11: note = alpha-methyl-L-serine; SITE 13: note = alpha-methyl-leucine; SITE 16: note = L-ornithine; SITE 17: note = Lysine is chemically mo
B21: Example 1167 (peptide)
chain: B16 chain with V27I, A35E
modifications: non-natural residues; Lys acylated C18 diacid; C-terminal amide; synthetic construct; SITE 2: note = 2-Aminoisobutyric Acid; SITE 6: note = alpha-methyl-L-phenylalanine; SITE 10: note = 3-(4-Pyridyl)-L-alanine; SITE 11: note = alpha-methyl-L-serine; SITE 13: note = alpha-methyl-leucine; SITE 16: note = L-ornithine; SITE 17: note = Lysine is chemically modified th

Target: T1, human GIP receptor (human) (UniProt P48546)
T1 sequence (looked up): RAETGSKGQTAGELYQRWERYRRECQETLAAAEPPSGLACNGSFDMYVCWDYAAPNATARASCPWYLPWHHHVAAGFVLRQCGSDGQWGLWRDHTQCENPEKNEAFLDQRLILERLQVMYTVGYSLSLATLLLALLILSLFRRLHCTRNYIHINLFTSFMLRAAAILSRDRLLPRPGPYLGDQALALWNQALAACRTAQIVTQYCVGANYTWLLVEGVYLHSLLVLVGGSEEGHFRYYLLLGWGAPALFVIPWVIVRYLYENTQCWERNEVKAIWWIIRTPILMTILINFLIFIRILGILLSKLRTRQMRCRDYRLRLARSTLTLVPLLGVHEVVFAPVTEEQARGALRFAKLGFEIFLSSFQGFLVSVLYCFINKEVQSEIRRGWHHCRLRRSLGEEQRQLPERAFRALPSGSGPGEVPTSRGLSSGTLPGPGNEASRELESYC
Experiment: cell-based or functional assay

Binder	Relative cAMP EC50 [nM]	cAMP Rel EC50 (in the presence of 1% HSA) [nM]
B1	0.00839	0.999
B2	0.011	1.18
B3	0.00896	0.707
B4	0.00962	0.768
B5	0.0127	1.33
B6	–	0.462
B7	0.0118	1.29
B8	0.00773	0.598
B9	0.0124	1.28
B10	0.0121	1.36
B11	0.0104	1.17
B12	0.0126	1.42
B13	0.00783	0.663
B14	0.00953	0.718
B15	0.00973	0.733
B16	0.00818	0.656
B17	0.00999	1.1
B18	0.00943	0.764
B19	0.00886	0.7
B20	0.00951	0.721
B21	0.011	1.22

Target: hGLP-1R (Homo sapiens, UniProt P43220)
Experiment: cell-based or functional assay

Sequence of hGLP-1R (P43220 24-463): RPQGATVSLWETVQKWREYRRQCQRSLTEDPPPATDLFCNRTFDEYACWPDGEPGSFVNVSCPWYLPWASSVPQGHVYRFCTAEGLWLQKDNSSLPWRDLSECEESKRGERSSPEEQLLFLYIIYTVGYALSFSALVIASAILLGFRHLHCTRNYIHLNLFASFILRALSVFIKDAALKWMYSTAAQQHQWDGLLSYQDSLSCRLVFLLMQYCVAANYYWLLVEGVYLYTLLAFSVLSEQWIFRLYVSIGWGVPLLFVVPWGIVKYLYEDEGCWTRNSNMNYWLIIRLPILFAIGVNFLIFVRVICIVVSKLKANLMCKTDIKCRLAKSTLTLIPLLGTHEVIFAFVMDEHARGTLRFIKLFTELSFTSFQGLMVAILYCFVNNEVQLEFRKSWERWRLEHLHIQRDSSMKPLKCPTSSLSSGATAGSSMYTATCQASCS

Binder	Relative cAMP EC50 [nM]	cAMP Rel EC50 (in the presence of 1% HSA) [nM]
B1	0.422	65.4
B2	0.613	80
B3	0.454	60.2
B4	0.572	60.7
B5	0.444	47.1
B6	–	43.8
B7	0.45	64.1
B8	0.365	31.2
B9	0.408	57.5
B10	0.632	87.7
B11	0.495	63.5
B12	0.419	46.8
B13	0.395	50.2
B14	0.529	52.9
B15	0.39	35.5
B16	0.372	34.5
B17	0.478	65.6
B18	0.604	59.1
B19	0.44	45.5
B20	0.449	35.4
B21	0.636	89.2

Target: human glucagon receptor (human) (UniProt P47871)
Experiment: cell-based or functional assay

Sequence of human glucagon receptor (human) (P47871 26-477): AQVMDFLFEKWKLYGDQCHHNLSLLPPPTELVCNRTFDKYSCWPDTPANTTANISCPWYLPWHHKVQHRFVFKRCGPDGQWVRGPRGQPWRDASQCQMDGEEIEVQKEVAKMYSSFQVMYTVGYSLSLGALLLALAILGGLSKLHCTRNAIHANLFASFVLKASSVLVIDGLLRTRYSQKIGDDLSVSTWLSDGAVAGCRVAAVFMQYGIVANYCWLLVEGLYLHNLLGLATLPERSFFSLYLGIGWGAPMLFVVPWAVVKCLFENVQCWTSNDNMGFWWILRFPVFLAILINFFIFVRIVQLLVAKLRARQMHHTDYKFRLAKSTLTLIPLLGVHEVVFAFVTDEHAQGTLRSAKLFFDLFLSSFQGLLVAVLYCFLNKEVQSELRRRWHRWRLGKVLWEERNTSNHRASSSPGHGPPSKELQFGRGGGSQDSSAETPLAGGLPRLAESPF

Binder	Relative cAMP EC50 [nM]	cAMP Rel EC50 (in the presence of 1% HSA) [nM]
B1	2.63	364
B2	2.43	304
B3	2.58	347
B4	2.08	282
B5	2.94	337
B6	–	229
B7	1.86	238
B8	2.41	183
B9	2.04	384
B10	2.68	358
B11	2.83	359
B12	2.19	301
B13	2.43	249
B14	2.19	233
B15	2.19	217
B16	2.55	199
B17	2.94	427
B18	2.31	254
B19	2.52	303
B20	1.75	163
B21	2.16	274
